The source of these data is PMC4036362, “Normal Activation of Discoidin Domain Receptor 1 Mutants with Disulfide Cross-links, Insertions, or Deletions in the Extracellular Juxtamembrane Region” (The Journal of Biological Chemistry, 2014).

To fix the notation:
B1: DDR1 mutant [human] / itself (parent)
chain: DADMKGHFDPAKCRYALGMQDRTIPDSDISASSSWSDSTAARHSRLESSDGDGAWCPAGSVFPKEEEYLQVDLQRLHLVALVGTQGRHAGGLGKEFSRSYRLRYSRDGRRWMGWKDRWGQEVISGNEDPEGVVLKDLGPPMVARLVRFYPRADRVMSVCLRVELYGCLWRDGLLSYTAPVGQTMYLSEAVYLNDSTYDGHTVGGLQYGGLGQLADGVVGLDDFRKSQELRVWPGYDYVGWSNHSFSSGYVEMEFEFDRLRAFQAMQVHSNNMHTLGARLPGGVECRFRRGPAMAWEGEPMRHNLGGNLGDPRARAVSVPLGGRVARFLQCRFLFAGPWLLFSEISFISDVVNNSSPALGGTFPPAPWWPPGPPPTNFSSLELEPRGQQPVAKAEGSPTAILIGCLVAIILLLLLIIALMLWRLHWRRLLSKAERRVLEEELTVHLSVPGDTILINNRPGPREPPPYQEPRPRGNPPHSAPCVPNGSALLLSNPAYRLLLATYARPPRGPGPPTPAWAKPTNTQAYSGDYMEPEKPGAPLLPPPPQNSVPHYAEADIVTLQGVTGGNTYAVPALPPGAVGDGPPRVDFPRSRLRFKEKLGEGQFGEVHLCEVDSPQDLVSLDFPLNVRKGHPLLVAVKILRPDATKNARNDFLKEVKIMSRLKDPNIIRLLGVCVQDDPLCMITDYMENGDLNQFLSAHQLEDKAAEGAPGDGQAAQGPTISYPMLLHVAAQIASGMRYLATLNFVHRDLATRNCLVGENFTIKIADFGMSRNLYAGDYYRVQGRAVLPIRWMAWECILMGKFTTASDVWAFGVTLWEVLMLCRAQPFGQLTDEQVIENAGEFFRDQGRQVYLSRPPACPQGLYELMLRCWSRESEQRPPFSQLHRFLAEDALNTV

Variants of B1 are the subject of this experiment. The experiment is described as follows: disulfide cross-linking, nonreducing SDS-PAGE and Western blotting with anti-DDR1 antibodies. The conditions noted are these: transiently transfected HEK293 cells, lysed in 30 mM NEM, read off a plot. (In western blotting, separated proteins are transferred to a membrane and probed.)
[1] abbreviates: 10 μg/ml collagen I for 90 min at 37 °C.

For the variant chain 1 L401C, the screen value runs as follows: under setting [1], 61%; (unstimulated) 60%. In the same order, the values of chain 1 L405C are 3.5% and 5%.

chain 1 A399C: the screen value by setting is: (10 μg/ml collagen I for 90 min at 37 °C, dimeric plus higher oligomeric forms) 59%; under setting [1], 59%; (unstimulated, dimeric plus higher oligomeric forms) 61%; (unstimulated) 61%. Consider chain 1 E394C, for which the screen value was found to be 72% under setting [1] and 75% (unstimulated). As to chain 1 G403C C404A, the screen value is 35% under setting [1] and 37% (unstimulated).

As for chain 1 L405C C404A, the screen value turned out to be 4.5% under setting [1] and 3.5% (unstimulated). Take chain 1 V390C: the screen value is 82% under setting [1] and 83% (unstimulated). With chain 1 S396C, the screen value runs as follows: under setting [1], 82%; (unstimulated) 84%. Turning to chain 1 V390C C404A, the screen value under setting [1] is 85%.

With chain 1 I400C, the screen value under setting [1] came to 56% and the screen value (unstimulated) was found to be 60%. The corresponding values for chain 1 P397C are 81% and 82%. In the case of chain 1 K392C, the screen value is 76% under setting [1] and 81% (unstimulated).

For chain 1 I402C, the screen value is, setting by setting: under setting [1], 62%; (unstimulated) 65%. Take chain 1 T398C: the screen value reads like this: under setting [1], 93%; (unstimulated) 94%. As for chain 1 G403C, the screen value under setting [1] turned out to be 30% and the screen value (unstimulated) stood at 32%. For chain 1 G395C, the screen value (unstimulated) stood at 73%. Consider chain 1 A393C, for which the screen value is, setting by setting: under setting [1], 81%; (unstimulated) 84%. In the same order, the values of chain 1 A391C are 80% and 81%. With chain 1 C404A, the screen value (unstimulated) turned out to be 4.5%. With chain 1 E394C C404A, the screen value under setting [1] was determined as 81% and the screen value (unstimulated) stood at 83%.
